{
  "source": "paper PMC5531264",
  "experiment_in_all_cases": "fluorescence anisotropy",
  "key": {"[1]": {"molecular_target": "T1, SAMHD1 C-terminal peptide (human, UniProt Q9Y3Z3 583-626)", "T1 chain": "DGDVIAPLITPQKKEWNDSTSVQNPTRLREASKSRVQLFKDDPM"}, "SAMHD1 RR": {"molecular_target": "SAMHD1 RR (human, UniProt Q9Y3Z3 1-626, R371E;R372E)"}, "SAMHD1 RK": {"molecular_target": "SAMHD1 RK (human, UniProt Q9Y3Z3 1-626, R333E;K336E)"}, "SAMHD1 RKRR": {"molecular_target": "SAMHD1 RKRR (human, UniProt Q9Y3Z3 1-626, R333E;K336E;R371E;R372E)"}, "SAMHD1 wild-type [2]": {"molecular_target": "T2, SAMHD1 wild-type (human, UniProt Q9Y3Z3 1-626)"}, "SAMHD1 wild-type [3]": {"molecular_target": "T2, SAMHD1 wild-type", "remark": "listed apart in the source"}},
  "note": "Read-outs that look alike come from different tables or passages of the source.",
  "data": [
    {"binder": "FAM-dT60 (ssDNA) DNA: TTTTTTTTTTTTTTTTTTTTTTTTTTTTTTTTTTTTTTTTTTTTTTTTTTTTTTTTTTTT", "values": [
      {"measurement": "Kd", "setting": "[1]", "value": "54 ± 5", "unit": "µM"},
      {"measurement": "apparent K (half saturation)", "setting": "SAMHD1 RR", "value": "15 ± 1", "unit": "µM"},
      {"measurement": "apparent K (half saturation)", "setting": "SAMHD1 RK", "value": "7.6 ± 0.4", "unit": "µM"},
      {"measurement": "apparent K (half saturation)", "setting": "SAMHD1 RKRR", "value": "30 ± 2", "unit": "µM"},
      {"measurement": "apparent K (half saturation)", "setting": "SAMHD1 wild-type [2]", "value": "700 ± 100", "unit": "nM"},
      {"measurement": "apparent K (half saturation)", "setting": "SAMHD1 wild-type [3]", "value": "500 ± 100", "unit": "nM"}
    ]}
  ]
}
